Results as given in PMC7565984, “A Phosphorylation-Induced Switch in the Nuclear Localization Sequence of the Intrinsically Disordered NUPR1 Hampers Binding to Importin” (Biomolecules, 2020).
Where a SMILES comes first, the peptide text is derived from it.

Columns and labels:
[1] = biological target: T1, human importin α3 (Impα3) (Homo sapiens, UniProt O00629); assay: ITC binding of NLS-NUPR1 peptides / NUPR1 to Impα3; settings: ITC, 298 K, Tris 50 mM pH 8; for ΔH (binding enthalpy), Impα3: absolute error 0.5 kcal/mol
T1 construct: although the IBB region maintains its independence within the whole Impα3 in terms of conformation; His-tag (N); made in house; host or cells: Escherichia coli BL21 (DE3)
T1 sequence (O00629 1-521): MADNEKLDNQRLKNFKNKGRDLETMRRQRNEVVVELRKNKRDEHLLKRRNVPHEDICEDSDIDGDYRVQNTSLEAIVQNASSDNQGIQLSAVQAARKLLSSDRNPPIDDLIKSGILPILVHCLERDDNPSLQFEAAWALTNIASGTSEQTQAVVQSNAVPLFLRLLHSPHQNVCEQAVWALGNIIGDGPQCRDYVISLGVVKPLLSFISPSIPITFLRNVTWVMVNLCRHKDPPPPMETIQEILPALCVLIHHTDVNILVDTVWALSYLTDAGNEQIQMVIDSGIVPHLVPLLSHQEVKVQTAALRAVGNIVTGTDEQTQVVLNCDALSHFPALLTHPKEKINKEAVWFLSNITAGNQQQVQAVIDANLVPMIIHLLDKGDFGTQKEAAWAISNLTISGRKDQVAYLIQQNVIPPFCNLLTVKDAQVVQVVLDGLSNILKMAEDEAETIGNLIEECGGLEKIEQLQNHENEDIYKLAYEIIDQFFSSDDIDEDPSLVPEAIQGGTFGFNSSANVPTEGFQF
Experimental: (§1) The experimental set-up and data processing of ITC experiments has been described previously. Calorimetric titrations, performed in an Auto-iTC200 calorimeter (MicroCal, Malvern-Panalytical, Malvern, UK) consisted of series of 19 2-μL injections, with 150 s time spacing and a 750-rpm stirring speed. Impα3 or ΔImpα3 (at 10–20 μM) was loaded into the calorimetric cell and NLS-NUPR1 peptides in the syringe (150–300 μM); all solutions were prepared in buffer Tris 50 mM, pH 8. […] The binding affinity (association constant) and the binding enthalpy were estimated through a least-squares nonlinear regression data analysis, from which the Gibbs energy and the entropic contribution to the binding were calculated using well-known thermodynamic relationships. Since the binding stoichiometry is constrained by the model, the parameter n provides a fraction of the active or binding competent protein. Experiments for each peptide and importin species were performed, at least, in duplicates.

[2] = biological target: T2, ΔImpα3 (importin α3 without the IBB domain, residues 64-521) (Homo sapiens, UniProt O00629); assay: ITC binding of NLS-NUPR1 peptides / NUPR1 to ΔImpα3; settings: ITC, 298 K, Tris 50 mM pH 8; for ΔH (binding enthalpy), ΔImpα3: absolute error 0.5 kcal/mol; for −TΔS (entropic contribution), ΔImpα3: calculated from Kd and ΔH, absolute error 0.7 kcal/mol
T2 construct: The His-tagged ΔImpα3 (residues 64-521) was obtained from BL21 (DE3) cells as described; His-tag; made in house; host or cells: Escherichia coli BL21 (DE3)
T2 sequence (O00629 64-521): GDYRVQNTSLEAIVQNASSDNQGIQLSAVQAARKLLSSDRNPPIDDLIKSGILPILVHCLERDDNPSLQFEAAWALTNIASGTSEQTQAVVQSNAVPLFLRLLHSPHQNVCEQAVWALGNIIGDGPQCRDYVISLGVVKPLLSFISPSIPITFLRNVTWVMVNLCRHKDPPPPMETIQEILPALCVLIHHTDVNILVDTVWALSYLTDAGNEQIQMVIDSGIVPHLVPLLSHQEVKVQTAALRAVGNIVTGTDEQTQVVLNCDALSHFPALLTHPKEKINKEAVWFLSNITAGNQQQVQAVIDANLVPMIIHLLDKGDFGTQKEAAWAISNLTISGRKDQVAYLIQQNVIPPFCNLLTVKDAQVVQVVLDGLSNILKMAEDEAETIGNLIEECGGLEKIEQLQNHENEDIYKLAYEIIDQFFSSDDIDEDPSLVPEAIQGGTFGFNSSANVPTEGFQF
Experimental: as §1

[3] = Translational diffusion by NMR DOSY (hydrodynamic properties); assay type: physicochemical; settings: for D, translational diffusion coefficient: 283 K, pH 7.2, 50-mM deuterated Tris, 100% D2O, peptide 120 μM; for Rh, hydrodynamic radius from D: from the translational diffusion coefficient of dioxane (Rh = 2.12 Å) added to each sample
Experimental: Concentrations of peptides in all DOSY experiments were 120 μM, and 128 scans, where the gradient strength was varied, were acquired for each curve. Translational self-diffusion measurements were performed with the pulsed gradient spin-echo sequence in the presence of 100% D2O. Experimental details have been described elsewhere. Briefly, the gradient strength was varied in sixteen linear steps between 2% and 95% of the total power of the gradient coil. The gradient strength was previously calibrated by using the value of the translational diffusion coefficient, D, for the residual proton water line in a sample containing 100% D2O in a 5-mm tube [34]. In our experiments for each peptide, the duration of the gradient was 2.25 ms, the time between the two pulse gradients in the pulse sequence was set to 200 ms, and the recovery delay between the bipolar gradients was set to 100 μs. The methyl groups with signals between 1.0 and 0.80 ppm were used for integration. Fitting of the exponential curves obtained from experimental data was carried out with KaleidaGraph (Synergy Software, Version 3.5), as described. A final concentration of 1% of dioxane, which was assumed to have a hydrodynamic radius Rh = 2.12 Å [34], was added to the solutions of each of the peptides to have a comparison for estimating their sizes.

[4] = biological target: T3, human importin α3 (intact, with the IBB domain) (human, UniProt O00629 1-521); assay: ITC; Impα3 or ΔImpα3 (10–20 μM) in the cell, NLS-NUPR1 peptide (150–300 μM) in the syringe; Tris 50 mM, pH 8; 298 K; single ligand binding site (1:1) model, n gives the fraction of binding-competent protein; settings: both partners purified
T3 construct: human importin α3 (KPNA4), intact protein with the IBB domain; codon-optimized synthetic DNA in the vector pHTP1; also called Impα3; KPNA4; source: E. coli BL21 (DE3), purified (as for ΔImpα3)
T3 sequence (looked up): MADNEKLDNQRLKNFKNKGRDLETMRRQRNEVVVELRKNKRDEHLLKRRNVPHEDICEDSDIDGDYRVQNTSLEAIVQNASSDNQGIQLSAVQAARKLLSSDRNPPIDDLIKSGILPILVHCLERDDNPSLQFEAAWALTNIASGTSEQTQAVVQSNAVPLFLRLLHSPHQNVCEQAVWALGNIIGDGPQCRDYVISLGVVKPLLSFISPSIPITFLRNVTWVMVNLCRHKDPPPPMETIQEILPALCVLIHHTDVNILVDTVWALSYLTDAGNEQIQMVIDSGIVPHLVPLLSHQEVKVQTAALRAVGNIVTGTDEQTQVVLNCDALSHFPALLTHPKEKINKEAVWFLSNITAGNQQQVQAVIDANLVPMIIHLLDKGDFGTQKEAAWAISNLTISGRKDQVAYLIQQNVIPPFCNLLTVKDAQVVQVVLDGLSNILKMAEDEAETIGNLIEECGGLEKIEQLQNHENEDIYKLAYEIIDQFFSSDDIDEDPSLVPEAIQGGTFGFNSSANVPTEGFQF

[5] = biological target: T4, truncated importin α3 without the IBB domain (residues 64-521) (human, UniProt O00629 64-521); assay: as above; settings: both partners purified
T4 construct: human importin α3 (KPNA4) without the IBB domain, residues 64-521; also called ΔImpα3; ΔImportin
T4 sequence (looked up): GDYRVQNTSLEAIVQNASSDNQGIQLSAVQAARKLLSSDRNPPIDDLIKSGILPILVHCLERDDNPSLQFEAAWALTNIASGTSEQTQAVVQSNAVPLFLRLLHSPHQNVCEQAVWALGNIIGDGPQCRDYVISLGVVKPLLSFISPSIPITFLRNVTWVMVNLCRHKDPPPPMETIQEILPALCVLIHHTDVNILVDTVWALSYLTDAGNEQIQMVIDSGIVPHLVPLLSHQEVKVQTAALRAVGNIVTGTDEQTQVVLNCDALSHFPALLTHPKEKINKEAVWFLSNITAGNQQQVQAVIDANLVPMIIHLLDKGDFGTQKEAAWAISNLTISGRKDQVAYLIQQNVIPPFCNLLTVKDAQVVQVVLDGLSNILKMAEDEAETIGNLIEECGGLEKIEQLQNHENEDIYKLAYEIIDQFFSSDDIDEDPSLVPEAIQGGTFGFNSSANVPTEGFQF

CC(=O)N[C@@H](Cc1ccc(O)cc1)C(=O)N[C@H](C(=O)N[C@@H](CC(N)=O)C(=O)N[C@@H](CCCNC(=N)N)C(=O)N1CCC[C@H]1C(=O)N[C@@H](CO)C(=O)N1CCC[C@H]1C(=O)NCC(=O)NCC(=O)N[C@@H](Cc1c[nH]cn1)C(=O)N[C@@H](CCC(=O)O)C(=O)N[C@@H](CCCNC(=N)N)C(=O)N[C@@H](C)C(=O)N[C@@H](CC(C)C)C(=O)N[C@H](C(=O)N[C@@H](CCC(=O)O)C(=O)N[C@@H](C)C(=O)N[C@@H](CC(C)C)C(=O)N[C@@H](CCC(N)=O)C(=O)N[C@@H](CC(N)=O)C(=O)N[C@@H](CO)C(=O)N[C@@H](CCC(=O)O)C(N)=O)C(C)C)[C@@H](C)O [K65AT68EK69A] (Ac-YTNRPSPGGHERALVEALQNSE-NH2)
ΔH (binding enthalpy), Impα3 [1]: -16.3 kcal/mol | Kd ([1]; importin 10–20 μM in cell, peptide 150–300 μM in syringe, 1:1 model, at least duplicates, relative error 30%, read-out: Kd (dissociation constant), Impα3): 27 µM | ΔH (binding enthalpy), ΔImpα3 [2]: -28.5 kcal/mol | −TΔS (entropic contribution), ΔImpα3 [2]: 22.2 kcal/mol | D, translational diffusion coefficient [3]: 2.4 ± 0.2 cm^2 s^−1 × 10^6 | Rh, hydrodynamic radius from D [3]: 9 ± 2 Å

CC(=O)N[C@@H](Cc1ccc(O)cc1)C(=O)N[C@H](C(=O)N[C@@H](CC(N)=O)C(=O)N[C@@H](CCCNC(=N)N)C(=O)N1CCC[C@H]1C(=O)N[C@@H](CO)C(=O)N1CCC[C@H]1C(=O)NCC(=O)NCC(=O)N[C@@H](Cc1c[nH]cn1)C(=O)N[C@@H](CCC(=O)O)C(=O)N[C@@H](CCCNC(=N)N)C(=O)N[C@@H](C)C(=O)N[C@@H](CC(C)C)C(=O)N[C@H](C(=O)N[C@@H](CCC(=O)O)C(=O)N[C@@H](CCCCN)C(=O)N[C@@H](CC(C)C)C(=O)N[C@@H](CCC(N)=O)C(=O)N[C@@H](CC(N)=O)C(=O)N[C@@H](CO)C(=O)N[C@@H](CCC(=O)O)C(N)=O)C(C)C)[C@@H](C)O [K65AT68E] (Ac-YTNRPSPGGHERALVEKLQNSE-NH2)
ΔH (binding enthalpy), Impα3 [1]: -7.8 kcal/mol | −TΔS (entropic contribution), Impα3 ([1]; calculated from Kd and ΔH, absolute error 0.7 kcal/mol): 1.4 kcal/mol | ΔH (binding enthalpy), ΔImpα3 [2]: -17.9 kcal/mol | −TΔS (entropic contribution), ΔImpα3 [2]: 11.3 kcal/mol | D, translational diffusion coefficient [3]: 1.76 ± 0.06 cm^2 s^−1 × 10^6 | Rh, hydrodynamic radius from D [3]: 12 ± 1 Å

B1: wild-type NLS-NUPR1 peptide (residues 54-74 of NUPR1 with an added N-terminal Tyr) (peptide)
peptide: Ac-YTNRPSPGGHERKLVTKLQNSE-NH2
notes: tyrosine introduced at the N terminus for absorbance measurements; not a residue of NUPR1; The added Tyr stands where NUPR1 has residue 53; also called wt; wt peptide; source: synthetic peptide (NZYtech, purity 95%)
Kd [4]: 1.7 µM | dH [4]: 0.8 kcal/mol | stoichiometry N [4]: 0.9 | Kd [5]: 0.95 µM | dH [5]: -3.7 kcal/mol | stoichiometry N [5]: 1

B2: NLS-NUPR1 peptide T68E (phospho-mimetic) (peptide)
peptide: Ac-YTNRPSPGGHERKLVEKLQNSE-NH2
notes: tyrosine introduced at the N terminus for absorbance measurements; not a residue of NUPR1; also called T68E peptide; Thr68Glu; source: synthetic peptide (NZYtech, purity 95%)
Kd [4]: 22 µM | dH [4]: -11.1 kcal/mol | Kd [5]: 12 µM | dH [5]: -17.5 kcal/mol

B3: NLS-NUPR1 peptide K69A (peptide)
peptide: Ac-YTNRPSPGGHERKLVTALQNSE-NH2
notes: tyrosine introduced at the N terminus for absorbance measurements; not a residue of NUPR1; also called K69A peptide; Lys69Ala; source: synthetic peptide (NZYtech, purity 95%)
Kd [4]: 11 µM | dH [4]: -10.8 kcal/mol | stoichiometry N [4]: 1.3 | Kd [5]: 7.6 µM | dH [5]: -21.3 kcal/mol | stoichiometry N [5]: 1.4
